{"source": "patent US20200277405A1", "about": "“COMPOSITION FOR ANTIBODY-DRUG CONJUGATE DIRECTED AGAINST TUMOR-CELL ASSOCIATED POLYSIALIC ACID” (Cornell University, priority 2019, published 2020)", "molecules": {"B1": {"name": "mo735: well-known mouse-derived IgG2a monoclonal antibody 735 targeting polysialic acid (antibody, V domains shown)", "VH": "QIQLQQSGPELVRPGASVKISCKASGYTFTDYYIHWVKQRPGEGLEWIGWIYPGSGNTKYNEKFKGKATLTVDTSSSTAYMQLSSLTSEDSAVYFCARGGKFAMDYWGQGTSVTVSS", "VL": "DVVMTQTPLSLPVSLGDQASISCRSSQSLVHSNGNTYLYWYLQKPGQSPKPLIYRVSNRFSGVPDRFSGSGSGTDFTLKISRVEAEDLGVYFCFQGTHVPYTFGGGTRLEIK"}, "B2": {"name": "ch735: chimeric human IgG1 polySia-specific mAb made by swapping variable regions of mouse mAb 735 (antibody, V domains shown)", "VH": "QIQLQQSGPELVRPGASVKISCKASGYTFTDYYIHWVKQRPGEGLEWIGWIYPGSGNTKYNEKFKGKATLTVDTSSSTAYMQLSSLTSEDSAVYFCARGGKFAMDYWGQGTSVTVSS", "VL": "DVVMTQTPLSLPVSLGDQASISCRSSQSLVHSNGNTYLYWYLQKPGQSPKPLIYRVSNRFSGVPDRFSGSGSGTDFTLKISRVEAEDLGVYFCFQGTHVPYTFGGGTRLEIK"}}, "key": {"polysialylated NCAM": {"target": "polysialylated NCAM", "assay": "SPR (Biacore) equilibrium binding to NCAM", "parameters": "species or system chicken", "settings": "antibody on Protein A sensor chip; NCAM 0.25-250 nM; Hill slope analysis in Prism", "method": "FIGS. 5A-5D depict binding affinity analysis of mo735 and ch735 antibodies. Binding kinetics for the mo735 and ch735 antibodies were monitored using Biacore. Commercial mo735 or recombinant purified ch735 was immobilized at low concentrations on a Biacore Protein A sensor chip and the response to different concentrations of NCAM (ranging from 0.25-250 nM) was compared with an empty flow cell. FIGS. 5A-5B depicts representative sensorgram data for mo735 (FIG. 5A) and ch735 (FIG. 5B).\nEquilibrium binding-affinity measurements were made by SPR analysis on a Biacore 3000 system. Antibodies mo735 and ch735 were bound to the surface of a Protein A sensor chip with a target level of 1700 response units (RUs). Serial dilutions of the antigen, chicken NCAM, prepared in 10 mM HEPES, pH 7.4, 150 mM NaCl, 3 mM EDTA, 0.005% polysorbate-20 (HBS-EP buffer, GE Healthcare) at concentrations ranging from 0.25 to 250 nM were injected over the chip using the same buffer at a flow rate of 20 μl/min (10 min injection time, 2 min stabilization time, 20 min dissociation). The surface of the chip was regenerated between the injections of each serial dilution with 10 mM glycine, pH 1.5 (30 sec injection time, 3 min stabilization time). Kinetic parameters were determined by fitting the maximum response values for each concentration using the Hill slope non-linear regression analysis in Prism software."}, "[1]": {"test_system": "polySia expressed on the surface of different cancer cell lines", "assay": "Flow cytometric analysis of antibody binding to cancer cell lines", "type": "cell-based, human", "excerpt": "FIGS. 6A-6D depict immunostaining of antibody ch735 to polySia-expressing cancer cells. […] Data are the geometric mean fluorescence intensity (MFI), with the values reported as the average of three replicates and the error represented as the standard deviation of the mean. […] Cells were stained with ch735, wheat germ agglutinin (WGA) to stain the cell membrane, and Hoescht to stain nuclei. Scale bars, 10 μm. […] Scale bars, 200 μm.\nFIGS. 7A-7B depict binding of antibody ch735 and mo735 to polySia-expressing cancer cells. Representative fluorescence histograms for ch735 (FIG. 7A) and mo735 (FIG. 7B) binding to a panel of cancer cell lines measured by flow cytometry are shown. Histograms represent antibody binding to untreated cells, antibody binding to endoN-treated cells, and anti-human or anti-mouse secondary only control, respectively.\nFIGS. 9A-9B depict binding of antibody mo735 to polySia-expressing cancer cells. […] Data are the geometric mean fluorescence intensity (MFI), with the values reported as the average of three replicates and the error represented as the standard deviation of the mean. […] Cells were stained with ch735, wheat germ agglutinin (WGA), and nuclei were stained with Hoescht. Scale bars, 10 μm.\nCancer cells were trypsinized and collected with media, followed by three washes in PBS. To remove polySia, cells were treated with endoN at 3 μg/mL in PBS for 1 h at room temperature. The cells are resuspended in 4% paraformaldehyde (PFA), fixed at room temperature with constant agitation for 10 min, and then washed two times with PBS, and two times with 0.5% BSA in PBS. The cells were collected and resuspended to 1 million cells/100 μL and pipetted into a round bottom 96-well plate. The cells were pelleted in the 96-well plate and resuspended in 0.5% BSA in PBS containing mo735 or ch735 (5 μg/mL) and incubated for 30 min at room temperature with constant agitation. Cells were washed three times with 0.5% BSA in PBS and resuspended in anti-mouse IgG-Alexa-Fluor 488 (AF488) secondary or anti-human IgG-AF488 secondary (ThermoFisher Scientific) at a 1:200 dilution for 30 min at room temperature in the dark with constant agitation. Cells were washed three times, resuspended in 500 μL of 0.5% BSA in PBS, and analyzed on a BD FACSCalibur flow cytometer using Cell Quest Pro software (BD Biosciences)."}, "[2]": {"assay": "CFG glycan microarray specificity profiling", "type": "binding", "settings": "for glycan specificity from microarrays: CFG glycan array (v5.3 mo735, v5.4 ch735) and glycoprotein array", "method": "(§1) FIGS. 2A-2D depict binding specificity and affinity of the ch735 antibody. […] ELISA signals (Abs370) were obtained with anti-human IgG secondary antibodies. […] Antibodies were assayed at 1 μg/mL and detected with anti-human IgG secondary antibodies. […] Antibodies were assayed at 10 μg/mL and detected with anti-mouse IgG secondary antibodies.\nas §1, with “3A-3D” for “2A-2D”, “mo735” for “the ch735”, “anti-mouse” for “anti-human”\nSpecificity of mo735 and ch735 was determined using printed glycan arrays 5.3 and 5.4 at the CFG. Both antibodies were analyzed at 10 μg/mL with 5 μg/mL of anti-mouse or anti-human Alexa-Fluor 647 (AF647)-conjugated secondary, respectively. Specificity of mo735 (1 μg/mL) and ch735 (10 μg/mL) was also assessed on a custom glycoprotein array that contained ˜40-50 glycoproteins including chicken brain NCAM and endoN-treated chicken brain NCAM."}, "[3]": {"test_system": "chicken brain-derived polysialylated neural cell adhesion molecule (NCAM)", "assay": "ELISA with immobilized NCAM", "type": "binding", "method": "as §1\nas §1, with “3A-3D” for “2A-2D”, “mo735” for “the ch735”, “anti-mouse” for “anti-human”\nCostar 96-well ELISA plates (Corning) were coated overnight at 4° C. with 50 μl of 1 μg/mL chicken brain NCAM (Millipore) or endoN-treated NCAM in PBS. Chicken NCAM (Millipore, AG265) was digested with 1.5 μg of endoN per 50 μg of NCAM overnight at 37° C. After blocking with 5% (w/v) milk in PBS for 1-3 h at room temperature or overnight at 4° C., ELISA plates were washed three times with wash buffer (PBST with 0.3% BSA) and incubated with serially diluted purified ch735, mo735 (Absolute Antibody), or ab5032 (Millipore) for 1 h at room temperature. Antibody samples were quantified with a Nanodrop. […]"}, "[4]": {"settings": "CFG microarray version 5.4, 10 μg/mL"}}, "data": [{"molecule": "B1", "values": [{"measurement": "Kd", "setting": "polysialylated NCAM", "value": 10.2, "unit": "nM"}, {"measurement": "polySia binding on panel of cell lines compared with ch735", "setting": "[1]; staining of each of the cell lines", "value": "Identical polySia binding results"}, {"measurement": "glycan specificity from microarrays", "setting": "[2]", "value": "Nearly identical results"}, {"measurement": "ELISA binding to NCAM", "setting": "[3]", "value": "specifically recognize polySia"}]}, {"molecule": "B2", "values": [{"measurement": "Kd", "setting": "polysialylated NCAM", "value": 4.79, "unit": "nM"}, {"measurement": "surface binding by flow cytometry", "setting": "[1]; A549 and MCF7 cells", "value": "No significant binding above background"}, {"measurement": "surface binding by flow cytometry", "setting": "[1]; NCI-H69, NCI-H82 and SH-SY5Y cells", "value": "lower intensity"}, {"measurement": "surface binding by flow cytometry", "setting": "[1]; SKOV3 and K562 cells", "value": "not recognized"}, {"measurement": "surface binding by flow cytometry", "setting": "[1]; SW2 cells", "value": "bound most avidly"}, {"measurement": "surface binding following endoN treatment", "setting": "[1]; polySia-positive cell lines, endoN-treated", "value": "lack of surface binding"}, {"measurement": "glycan specificity from microarrays", "setting": "[2]", "value": "α2,8-linked sialic acid with a degree of polymerization (DP) of three or greater"}, {"measurement": "glycan array binding to glycan Chart ID #224", "setting": "[2]; [4]", "value": "lesser but still significant level of binding above background"}, {"measurement": "glycan array binding to glycans #225 and 226", "setting": "[2]; [4]", "value": "not"}, {"measurement": "glycan array binding to tetra-sialic acid glycan Chart ID #223", "setting": "[2]; [4]", "value": "strong preference"}, {"measurement": "ELISA binding to NCAM", "setting": "[3]", "value": "specifically recognize polySia"}]}]}
